Data from patent publication US20180185450A1 (Sanofi, published 2018).
Like-named read-outs stand apart in the source and are kept apart here. Numbered stars: 1 amine (or outer) side, 2 acyl side, 3 side chain; on linkers, the order of the positions; unused ones are H or OH. Square brackets hold non-standard residues; d marks the D form. Side chains are listed from the residue outwards. Ends that are not written are not given here. γGlu = O=C(O)[C@H](CCC(=O)[*:2])N[*:1]; X70 = not defined here; x53 = not defined here; Aib = CC(C)(N)C(=O)O

What was measured:
Assay in all cases: cell-based or functional assay
[1] = target: T1, human GLP-1 receptor (human, UniProt P43220 24-463)
[2] = target: T2, human glucagon receptor (human, UniProt P47871 26-477)
[3] = target: T1, human GLP-1 receptor; remark: listed apart in the source
[4] = target: T2, human glucagon receptor; remark: listed apart in the source

T2 sequence (P47871 26-477): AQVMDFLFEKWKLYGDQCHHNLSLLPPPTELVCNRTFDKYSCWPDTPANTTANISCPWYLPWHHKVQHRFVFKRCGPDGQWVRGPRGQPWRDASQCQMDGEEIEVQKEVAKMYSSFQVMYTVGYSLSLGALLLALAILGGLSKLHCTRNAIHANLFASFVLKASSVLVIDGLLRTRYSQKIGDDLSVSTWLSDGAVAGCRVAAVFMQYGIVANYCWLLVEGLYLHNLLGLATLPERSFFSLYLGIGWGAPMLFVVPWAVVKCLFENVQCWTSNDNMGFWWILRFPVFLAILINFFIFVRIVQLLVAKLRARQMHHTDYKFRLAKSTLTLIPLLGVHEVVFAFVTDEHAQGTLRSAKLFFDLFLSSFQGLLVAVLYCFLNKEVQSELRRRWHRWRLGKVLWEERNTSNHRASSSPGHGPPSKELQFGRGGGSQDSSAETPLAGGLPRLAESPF

Binder | EC50 hGLP-1R (cAMP) [1] | EC50 hGlucagon-R (cAMP) [2] | EC50 hGLP-1R (cAMP) [3] | EC50 hGlucagon-R (cAMP) [4]
HXQGTFTSDLSKQLDEEAARLFIEWLKAGGPSSGAPPPS (Aib at 2; C-terminal NH2) [SEQ ID NO: 224] | 1.3 pM | 2930 pM | – | –
HXQGTFTSDLSKQLEEEAARLFIEWLKAGGPSSGAPPPS (Aib at 2; C-terminal NH2) [SEQ ID NO: 225] | 0.7 pM | 2870 pM | – | –
H[Aib]QGTFTSDLSKQK([γGlu-x53])DSRRAQDFIEWLKNGGPSSGAPPPS-NH2 (reading uncertain) [SEQ ID NO: 115] | 2.4 pM | 1.9 pM | 2.4 pM | 1.9 pM
H[Aib]QGTFTSDLSKQK(x53)ESQAAQDFIEWLKAGGPSSGAPPPS-NH2 (reading uncertain) [SEQ ID NO: 43] | – | – | 4.1 pM | 443 pM
H[Aib]QGTFTSDLSKQK([γGlu-X70])DEEAARLFIEWLKAGGPSSGAPPPS-NH2 (reading uncertain) [SEQ ID NO: 216] | 4.7 pM | 19.5 pM | 4.7 pM | 19.5 pM
H[Aib]QGTFTSDLSKQK([γGlu-X70])EEEAARLFIEWLKAGGPSSGAPPPS-NH2 (reading uncertain) [SEQ ID NO: 215] | 5.3 pM | 42.6 pM | 5.3 pM | 42.6 pM
HXQGTFTSDLSKQKDSRRAQDFIEWLKAGGPSSGAPPPS (dSer at 2; K(γE-x53) at 14; C-terminal NH2) [SEQ ID NO: 74] | 4.2 pM | 1.3 pM | 4.2 pM | 1.3 pM
HXQGTFTSDLSKQKESRAAQEFIEWLKAGGPSSGAPPPS (dSer at 2; K(γE-x53) at 14; C-terminal NH2) [SEQ ID NO: 47] | – | – | 2.2 pM | 10.3 pM
HXQGTFTSDLSKQKESRAAQDFIEWLKAGGPSSGAPPPS (dSer at 2; K(γE-γE-x53) at 14; C-terminal NH2) [SEQ ID NO: 49] | – | – | 1.1 pM | 2.9 pM
HXQGTFTSDLSKQKESRRAQDFIEWLKAGGPSSGAPPPS (dSer at 2; K(γE-x53) at 14; C-terminal NH2) [SEQ ID NO: 4] | 5 pM | 4 pM | 5 pM | 4 pM
HXQGTFTSDLSKQKDSRRAQDFIEWLKRGGPSSGAPPPS (dSer at 2; K(γE-x53) at 14; C-terminal NH2) [SEQ ID NO: 125] | 31.4 pM | 6.9 pM | 31.4 pM | 6.9 pM
HXQGTFTSDLSKQKESRAAQLFIEWLKAGGPSSGAPPPS (dSer at 2; K(γE-x53) at 14; C-terminal NH2) [SEQ ID NO: 48] | – | – | 5.9 pM | 53.6 pM
HXQGTFTSDLSKQKESQAAQDFIEWLKAGGPSSGAPPPS (dSer at 2; K(x53) at 14; C-terminal NH2) [SEQ ID NO: 42] | – | – | 10.2 pM | 199 pM
HXQGTFTSDLSKQMDSRRAQDFIEWLKKGGPSSGAPPPS (dSer at 2; C-terminal NH2) [SEQ ID NO: 186] | 102 pM | 590 pM | – | –
HXQGTFTSDLSKQXDSKAAQDFIEWLKAGGPSSGAPPPS (dSer at 2; Nle at 14; C-terminal NH2) [SEQ ID NO: 192] | – | 478 pM | – | –
HXQGTFTSDLSKQKDSRRAQDFIEWLKXGGPSSGAPPPS (dSer at 2; K(γE-x53) at 14; Aib at 28; C-terminal NH2) [SEQ ID NO: 78] | 17.8 pM | 1.6 pM | 17.8 pM | 1.6 pM
HXQGTFTSDLSKQMESKAAQDFIEWLKAGGPSSGAPPPS (dSer at 2; C-terminal NH2) [SEQ ID NO: 189] | 5.6 pM | 1680 pM | – | –

Binder | EC50 hGLP-1R (cAMP) [1] | EC50 hGlucagon-R (cAMP) [2] | EC50 hGLP-1R (cAMP) [3] | EC50 hGlucagon-R (cAMP) [4]
HXQGTFTSDLSKQKDSRRAQDFIEWLKNGGPSSGAPPPS (dSer at 2; C-terminal NH2) [SEQ ID NO: 183] | 1020 pM | 916 pM | – | –
HXQGTFTSDLSKQKESRAAQDFIEWLKAGGPSSGAPPPS (dSer at 2; K(GABA-x53) at 14; C-terminal NH2) [SEQ ID NO: 50] | – | – | 3.3 pM | 11.1 pM
HXQGTFTSDLSKQMDSRRAQDFIEWLKXGGPSSGAPPPS (dSer at 2; Aib at 28; C-terminal NH2) [SEQ ID NO: 187] | 152 pM | 195 pM | – | –
HXQGTFTSDLSKQKDSRRAQDFIEWLKKGGPSSGAPPPS (dSer at 2; K(γE-x53) at 14; C-terminal NH2) [SEQ ID NO: 84] | 8.1 pM | 4.3 pM | 8.1 pM | 4.3 pM
HXQGTFTSDLSKQMESRRAQDFIEWLKAGGPSSGAPPPS (dSer at 2; C-terminal NH2) [SEQ ID NO: 184] | 85.7 pM | 991 pM | – | –
HXQGTFTSDLSKQKESRRAQDFIEWLKAGGPSSGAPPPS (dSer at 2; K(Ac) at 14; C-terminal NH2) [SEQ ID NO: 194] | 159 pM | 1290 pM | – | –
HXQGTFTSDLSKQKDSKAAQDFIEWLKAGGPSSGAPPPS (dSer at 2; K(γE-x53) at 14; C-terminal NH2) [SEQ ID NO: 30] | 3.2 pM | 7 pM | 3.2 pM | 7 pM
HXQGTFTSDLSKQMDSRRAQDFIEWLKNGGPSSGAPPPS (Aib at 2; C-terminal NH2) [SEQ ID NO: 182] | 5.8 pM | 419 pM | – | –
HXQGTFTSDLSKQKESRAAQLFIEWLKAGGPSSGAPPPS (dSer at 2; K(γE-x70) at 14; C-terminal NH2) [SEQ ID NO: 45] | – | – | 7.5 pM | 19.9 pM
HXQGTFTSDLSKQKDSRRAQDFIEWLKNGGPSSGAPPPS (dSer at 2; K(γE-x53) at 14; C-terminal NH2) [SEQ ID NO: 97] | – | 1.2 pM | 3.5 pM | 1 pM
HXQGTFTSDLSKQKESKAAQDFIEWLKAGGPSSGAPPPS (dSer at 2; K(γE-x53) at 14; C-terminal NH2) [SEQ ID NO: 24] | 2 pM | 9.8 pM | 1.9 pM | 9.4 pM
HXQGTFTSDLSKQKESRAAXLFIEWLKAGGPSSGAPPPS (dSer at 2; K(γE-x53) at 14; Aib at 20; C-terminal NH2) [SEQ ID NO: 46] | – | – | 3.2 pM | 25.1 pM
HXQGTFTSDLSKQMESRRAXDFIEWLKAGGPSSGAPPPS (dSer at 2; Aib at 20; C-terminal NH2) [SEQ ID NO: 190] | 21.3 pM | 1560 pM | – | –
HXQGTFTSDLSKQKESRAAQDFIEWLKAGGPSSGAPPPS (dSer at 2; K(γE-x53) at 14; C-terminal NH2) [SEQ ID NO: 44] | – | – | 2.7 pM | 12 pM
HXQGTFTSDLSKQKESRRAXDFIEWLKAGGPSSGAPPPS (dSer at 2; K(γE-x53) at 14; Aib at 20; C-terminal NH2) [SEQ ID NO: 75] | 11.1 pM | 12.5 pM | 11.1 pM | 12.5 pM
HXQGTFTSDLSKQMDSRRAQDFIEWLKAGGPSSGAPPPS (dSer at 2; C-terminal NH2) [SEQ ID NO: 188] | 89.6 pM | 186 pM | – | –
HXQGTFTSDLSKQMDSRRAQDFIEWLKRGGPSSGAPPPS (dSer at 2; C-terminal NH2) [SEQ ID NO: 185] | 75.7 pM | 262 pM | – | –
